# Data as given in paper PMC5291697.
# B1: standard measles virus (MeV) phosphoprotein P, full length (natural protein)
# chain: MATLLRSLALFKRNKDKPPITSGSGGAIRGIKHIIIVPIPGDSSITTRSRLLDRLVRLIGNPDVSGPKLTGALIGILSLFVESPGQLIQRITDDPDVSIRLLEVVQSDQSQSGLTFASRGTNMEDEADQYFSHDDPISSDQSRFGWFENKEISDIEVQDPEGFNMILGTILAQIWVLLAKAVTAPDTAADSELRRWIKYTQQRRVVGEFRLERKWLDVVRNRIAEDLSLRRFMVALILDIKRTPGNKPRIAEMICDIDTYIVEAGLASFILTIKFGIETMYPALGLHEFAGELSTLESLMNLYQQMGETAPYMVILENSIQNKFSAGSYPLLWSYAMGVGVELENSMGGLNFGRSYFDPAYFRLGQEMVRRSAGKVSSTLASELGITAEDARLVSEIAMHTTEDKISRAVGPRQAQVSFLHGDQSENELPRLGGKEDRRVKQSRGEARESYRETGPSRASDARAAHLPTGTPLDIDTASESSQDPQDSRRSADALLRLQAMAGISEEQGSDTDTPIVYNDRNLLD
# Target: Ncore-MoRE (MeV N with MoRE relocated from Ntail to Ncore position 138) (measles virus (MeV-Edm strain))
# Assay: co-IP
binder,measurement,value
B1,coprecipitation efficiency relative to standard N (% of standard N),75
